# Measurements taken from publication doi:10.1101/2024.05.01.590489 (bioRxiv, 2024).
# B1: mAb3-3 (antibody, V domains shown)
# VH: QVQLQESGPGLVKSSETLSLTCTVSGESISSSSHYWGWIRQPPGKGLEFLGNVYYLGSTYYNPSLESRVTILLDTSKNQFSLKVNSVTVADTAVYYCARHGAGSYSGLFFDYWGQGARVIVSS
# VL: DIQMTQSPSFVSASVGDRVNITCRASQGINSWLAWYQQKPGKAPKLLIYSASSLQSGVPSRFSGSGSGTDFTLTISTLQPEDFATYYCQQANSFPYTFGQGTKVD
# B2: mAb3-6 (antibody, V domains shown)
# VH: EVQLVESGGGLVQPGGSLRLSCSASGFHFSSYEMNWVRQAPGKGLEWVSYISSSGTYIDYADSVKGRFTISRDNPANSLYLQMYSLRAEDTAVYYCARRLWFGELPYSYYYGMDVWGQGTTVTVSS
# VL: ALTQPASVSGSPGQSITISCTGTSSDIGGYNYVSWYQQHPGKAPELLIFDVSNRPSGVSNRFSGSKSGNTASLTISGLQAEDEADYHCCSYTRTSTVIFGGGTKLTVL
# B3: mAb3-2 (antibody, V domains shown)
# VH: EVQLLESGGGLVQPGGSLRLSCAASGFTFSNYAMSWVRQAPGKGLEWVSLISGSGGSIDYADSVKGRFTISRDNSKNTLYLQMDSLRAEDTAVYYCSKDPIYYDLSGYYAGRIYYFDYWGQGTLVTVSS
# VL: EIVMTQSPATLSVSPGDTATLSCRASHSVSRDLAWYQQKPGQAPRLLIYDASTRATGIPARFSGSGSGTEFTLTISSLQSEDFAVYYCQQYINWVTFGPGTKVDIE
# B4: mAb3-4 (antibody, V domains shown)
# VH: AVESGGGLVKPGGPLRLSCAASGFSLSDNYMTWIRQAPGKGLEWVSYISSSGSFINYADSVKGRFTISRDNAKNSLYLQMNSLRAEDTAVYYCARVLSSGGLTTSWRALWYFDVWGRGTLVTVS
# VL: TVVTQEPSFSVSPGGTVTLTCGLTSGSVSTSYYPSWYQQTPGQTPRTLIYSTNIRSSGVPDRFSGSILGNKAALTITGAQADDECDYYCVLYMGSGIWVFGGGTKLTVL
# B5: mAb3-7 (antibody, V domains shown)
# VH: QVQLQESGPGLVKPSETLSLTCTVSGGSISNYYWNWIRQPPGKGLEWIGYVHYSGSTNYNPSLKSRVSVSVDTSKNQFSLNLGSVTAADTAVYYCARQSRSYYNEVITDPKYNFDYWGQGTLVTVSS
# VL: QSALTQPASVSGSPGQSITISCTGTSSDVGGYDYVSWYQQHPGKAPKLMIYDVSNRPSGVSNRFSGSKSGNTASLTISGLQAEDEADYYCSSYTSISTLVFGGGTKLTVL
# B6: mAb3-5 (antibody, V domains shown)
# VH: EVQLVESGGGLVQPGGSLRLSCAASGFTFSNYGMNWVRQAPGKGLEWVSYISSGGTIYYADSVKGRFTISRDNAKNSVYLQMNSLRAEDTAVYYCARDPAYCGDDCYTIPAHYFDYWGQGTPVTVS
# VL: DIQMTQSPSSLSASVGDRVTITCRTSQSISRYLNWYQQKPGKAPKLLIYAASSLQSGVPSRFTGSGSGTDFTLTISSLQPEDFATYYCQQSYSIPPVTFGQGTRVD
# B7: mAb3-1 (antibody, V domains shown)
# VH: EVQLLESGGGLVQPGGSLRLSCEASGFTFSRYPMNWVRQAPGKGLEWVSHISASGGTTYYADTVKGRFSISRDNSKNTLYLEMNSLRAEDTAIYFCAKDYPPDEVTMIVVGMPYFDSWGLGTLVSVSS
# VL: not shown
# B8: mAb2-6 (antibody, V domains shown)
# VH: VQLLESGGALVQPGGSLRLSCAASGFSFSNYAMSWVRQAPGKGLEWVSTISASGGTTYFADSVKGHFTISRDNSKNTLYLQMDSLRAEDTAVYYCAKDPNYYDLSGYFLGGYYFDYWGQGTLVTVSS
# VL: EIVLTQSPGTLSLSPGERATLSCRASQSVRSSYLAWYQQKPGQAPRLLIYGASSRATDIPDRFSGSGSGTDFTLTISRLEPEDFAVYYCQQYGTSPAFGGGTKV
# Biological target: AAV9 capsid (adeno-associated virus serotype 9 (AAV9), UniProt Q6JC40)
# Test: far-Western, overlay or dot blot
row,Binder,binding result
1,B1,binds
2,B2,binds
3,B3,binds
4,B4,binds
5,B5,binds
6,B6,binds
7,B7,binds
8,B8,binds
